# Laboratory results from patent publication US20220073922, “Aptamers and use thereof” (Aptitude Medical Systems, Inc., published 2022).
# What was measured:
# Angiopoietin-2 (Ang2) [1] = molecular target: T1, Angiopoietin-2 (Ang2) (Homo sapiens, UniProt O15123 O15123:19-496); assay: flow; PBSMCT, 37 C; conditions: tags: His tag, R&D Systems 623-AN; label: biotin
# Experimental: (§1) Various mutations and truncated variants of a representative anti-Ang2 aptamer (AMS0525) were obtained and their binding affinity to Ang2 were measured using magnetic bead partitioning. Biotinylated anti-Ang2 aptamers were conjugated to the 1 μm streptavidin-coated MyOne Streptavidin Cl magnetic beads (Thermo Fisher Scientific, 65002). Binding assays were performed by incubating fixed concentration of aptamer (0.01 nM) and Ang2 protein at concentrations ranging from 10⁻¹² to 10⁻⁸ M in PBSMCT buffer (DPBS, pH 7.2 with 2.5 mM MgCl₂, 1 mM CaCl₂) and 0.01% TWEEN-20) at 37° C. for 90 minutes. Bound target protein was partitioned by magnetic separation and subsequently labeled via fluorescent anti-His-tag antibody. The fraction of anti-Ang2 aptamer bound was quantified by flow cytometry (BD Accuri C6 Plus). Raw binding data were corrected for nonspecific background binding of target protein to empty magnetic beads. The fraction of bound anti-Ang2 aptamer was plotted as a function of protein concentration and a non-linear curve-fitting algorithm (Langmuir one-site binding model) was used to extract equilibrium binding constants (KD values) from the data (FIG. 4A).
# Angiopoietin-2 (Ang2) [2] = molecular target: Angiopoietin-2 (Ang2) (Mus musculus, UniProt O35608 O35608:19-496); assay: flow; PBSMCT, 37 C; conditions: tags: R&D Systems 7186-AN; label: biotin
# Experimental: as §1
# Angiopoietin-2 (Ang2) [3] = molecular target: T1, Angiopoietin-2 (Ang2); assay: competition; blocks Ang2-Tie2 binding; PBSMCT, 37 C; conditions: tags: His tag, R&D Systems 623-AN; label: biotin
# Experimental: (§4) Ang2-bound Tie2 and anti-Ang2 aptamers were partitioned by magnetic separation, and the Ang2-bound Tie2 were subsequently labeled via a fluorescent anti-human antibody. The fraction of Ang2-bound receptor was quantified by flow cytometry (BD Accuri C6 Plus). Raw binding data were corrected for nonspecific background binding and normalized to the fluorescence intensity from the sample with 1 nM Tie2 but without anti-Ang2 aptamer competition. The fraction of bound receptor was plotted as a function of anti-Ang2 aptamer concentration and a non-linear curve-fitting algorithm (dose-response inhibition) was used to extract IC₅₀ values from the data (FIG. 4C).
# Angiopoietin-1 (Ang1) = Angiopoietin-1 (Ang1) (Homo sapiens, UniProt Q15389 Q15389:16-498); assay: flow; does not recognize human Ang1; conditions: tags: R&D Systems 923-AN; label: biotin
# [4] = molecular target: T2, VEGF-165 (VEGFA isoform 165) (Homo sapiens); assay: flow; PBSMCT, 37 C; conditions: chain copies: 2 (inferred); label: biotin; stem-loop with bulges
# T2 chain: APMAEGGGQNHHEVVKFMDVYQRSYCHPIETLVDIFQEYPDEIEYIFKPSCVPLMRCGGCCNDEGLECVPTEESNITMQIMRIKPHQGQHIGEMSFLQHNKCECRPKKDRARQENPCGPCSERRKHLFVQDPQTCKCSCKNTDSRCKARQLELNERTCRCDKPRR
# Experimental: (§2) Truncated and modified variants of the anti-VEGF aptamers of the present disclosure were prepared by LGC Biosearch Technologies (Novato, Calif.), and their binding affinity to corresponding targets were examined. Briefly, the equilibrium binding constants of the enriched libraries were measured using magnetic bead partitioning. Biotinylated anti-VEGF aptamers were conjugated to the 1 μm streptavidin-coated MyOne Streptavidin Cl magnetic beads (Thermo Fisher Scientific, 65002). Binding assays were performed by incubating fixed concentration of anti-VEGF aptamer (0.01 nM) and target protein at concentrations ranging from 10⁻¹² to 10⁻⁸ M in PBSMCT buffer (DPBS, pH 7.2 with 2.5 mM MgCl₂, 1 mM CaCl₂) and 0.01% TWEEN-20) at 37° C. for 90 minutes. Bound target protein was partitioned by magnetic separation and subsequently labeled via fluorescent anti-VEGF or anti-His-tag antibody. The fraction of anti-VEGF aptamer bound was quantified by flow cytometry (BD Accuri C6 Plus). Raw binding data were corrected for nonspecific background binding of target protein to empty magnetic beads. The fraction of bound anti-VEGF aptamer was plotted as a function of protein concentration and a non-linear curve-fitting algorithm (Langmuir one-site binding model) was used to extract equilibrium binding constants (KD values) from the data (FIG. 1).
# [5] = molecular target: T3, VEGF-121 (VEGFA isoform 121) (Homo sapiens, UniProt P15692 SEQ:1-121); assay: flow; PBSMCT, 37 C; conditions: chain copies: 2 (inferred); label: biotin; stem-loop with bulges
# Experimental: as §2
# [6] = molecular target: T2, VEGF-165 (VEGFA isoform 165); assay: competition; blocks VEGF-R1 and VEGF-R2 binding; PBSMCT, 37 C; conditions: chain copies: 2 (inferred); label: biotin; stem-loop with bulges
# Experimental: (§3) Three different recombinant VEGF receptors (two VEGF-R1 and one VEGF-R2) were tested (R&D Systems, 3516-FL, 321-FL, and 357-KD). […] VEGF-bound receptors and anti-VEGF aptamers were partitioned by magnetic separation, and the VEGF-bound VEGF receptors were subsequently labeled via a fluorescent anti-human antibody. The fraction of VEGF-bound receptor was quantified by flow cytometry (BD Accuri C6 Plus). Raw binding data were corrected for nonspecific background binding and normalized to the fluorescence intensity from the sample with 1 nM VEGF receptor but without anti-VEGF aptamer competition. The fraction of bound receptor was plotted as a function of anti-VEGF aptamer concentration and a non-linear curve-fitting algorithm (dose-response inhibition) was used to extract IC₅₀ values from the data (FIG. 2).
# [7] = molecular target: T3, VEGF-121 (VEGFA isoform 121); assay: as above; conditions: chain copies: 2 (inferred); label: biotin; stem-loop with bulges
# Experimental: as §3
# [8] = molecular target: T2, VEGF-165 (VEGFA isoform 165); assay: flow; PBSMCT, 37 C; Table 7 gives a different value; conditions: chain copies: 2 (inferred); label: biotin; stem-loop with bulges
# Experimental: as §2
# [9] = molecular target: T3, VEGF-121 (VEGFA isoform 121); assay: as above; conditions: chain copies: 2 (inferred); label: biotin; stem-loop with bulges
# Experimental: as §2
# [10] = molecular target: T2, VEGF-165 (VEGFA isoform 165); assay: flow; PBSMCT, 37 C; Table 6 gives a different value; conditions: chain copies: 2 (inferred); label: biotin; stem-loop with bulges
# Experimental: as §2
# [11] = molecular target: T3, VEGF-121 (VEGFA isoform 121); assay: as above; conditions: chain copies: 2 (inferred); label: biotin; stem-loop with bulges
# Experimental: as §2
# Angiopoietin-2 (Ang2) [12] = molecular target: T1, Angiopoietin-2 (Ang2); assay: flow; conditions: tags: His tag, R&D Systems 623-AN; label: 5'-biotin
# [13] = molecular target: T3, VEGF-121 (VEGFA isoform 121); assay: flow; conditions: chain copies: 2 (inferred); label: 5'-biotin
# Angiopoietin-2 (Ang2) [14] = molecular target: T1, Angiopoietin-2 (Ang2); assay: competition; blocks Ang2-Tie2; conditions: tags: His tag, R&D Systems 623-AN; label: 5'-biotin
# Experimental: as §4
# T1 sequence (O15123 19-496, one chain of several): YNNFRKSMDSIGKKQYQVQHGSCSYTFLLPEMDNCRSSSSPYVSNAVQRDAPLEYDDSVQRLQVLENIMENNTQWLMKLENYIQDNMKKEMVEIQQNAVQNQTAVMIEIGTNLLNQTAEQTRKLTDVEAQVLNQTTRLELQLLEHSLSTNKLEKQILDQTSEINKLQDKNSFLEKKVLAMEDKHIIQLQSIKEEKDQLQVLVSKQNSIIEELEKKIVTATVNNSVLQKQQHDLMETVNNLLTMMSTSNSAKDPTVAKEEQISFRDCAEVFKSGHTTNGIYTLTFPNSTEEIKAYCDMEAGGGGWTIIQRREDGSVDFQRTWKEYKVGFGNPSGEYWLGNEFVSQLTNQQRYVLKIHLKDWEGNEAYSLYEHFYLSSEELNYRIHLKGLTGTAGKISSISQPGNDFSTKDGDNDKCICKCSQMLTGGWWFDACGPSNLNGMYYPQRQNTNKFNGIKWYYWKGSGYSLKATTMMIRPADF
# Angiopoietin-2 (Ang2) (Mus musculus, UniProt O35608 O35608:19-496), sequence (O35608 19-496, one chain of several): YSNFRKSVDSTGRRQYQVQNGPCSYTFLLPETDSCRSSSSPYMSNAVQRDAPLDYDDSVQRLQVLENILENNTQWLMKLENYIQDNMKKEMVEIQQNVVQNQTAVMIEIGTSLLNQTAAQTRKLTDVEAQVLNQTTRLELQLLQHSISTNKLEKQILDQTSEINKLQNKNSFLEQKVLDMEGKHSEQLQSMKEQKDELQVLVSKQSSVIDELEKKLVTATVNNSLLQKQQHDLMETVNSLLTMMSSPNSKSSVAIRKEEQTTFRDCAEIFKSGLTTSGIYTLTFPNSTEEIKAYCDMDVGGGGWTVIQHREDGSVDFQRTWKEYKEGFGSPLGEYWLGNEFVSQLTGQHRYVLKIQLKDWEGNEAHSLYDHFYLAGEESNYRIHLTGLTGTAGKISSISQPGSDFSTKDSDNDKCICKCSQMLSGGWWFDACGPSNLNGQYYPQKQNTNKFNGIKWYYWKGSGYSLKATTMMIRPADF
# Angiopoietin-1 (Ang1), sequence (Q15389 16-498, one chain of several): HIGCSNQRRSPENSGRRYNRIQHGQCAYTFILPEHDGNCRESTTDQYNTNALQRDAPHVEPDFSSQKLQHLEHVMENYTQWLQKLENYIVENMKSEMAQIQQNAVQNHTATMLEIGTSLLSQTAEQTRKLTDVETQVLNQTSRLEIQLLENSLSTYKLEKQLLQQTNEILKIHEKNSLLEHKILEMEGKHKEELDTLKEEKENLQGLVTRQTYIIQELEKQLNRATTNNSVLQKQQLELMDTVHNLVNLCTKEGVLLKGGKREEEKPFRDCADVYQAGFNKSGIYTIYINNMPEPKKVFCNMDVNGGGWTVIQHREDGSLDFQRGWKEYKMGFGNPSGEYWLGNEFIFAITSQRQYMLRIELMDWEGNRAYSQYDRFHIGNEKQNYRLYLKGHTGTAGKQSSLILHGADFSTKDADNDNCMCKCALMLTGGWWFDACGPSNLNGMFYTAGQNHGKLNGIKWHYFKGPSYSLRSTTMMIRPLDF
binder,measurement,setting,value
"CGCAUAGAUAAGCCAACAAACGUACAUUCUCUGUUAGUAUUUUCUGCG (ssRNA, 2'-F all positions) [AMS0526]",Kd,Angiopoietin-2 (Ang2) [1],32 pM
same,Kd,Angiopoietin-2 (Ang2) [2],< 100 pM
same,IC50,Angiopoietin-2 (Ang2) [3],83.9 pM
same,binding result,Angiopoietin-1 (Ang1),no binding
"CGCUAGAUGGCUAACACUAUUGUGGAGAUGCACUAGCG (ssRNA, 2'-F all positions) [AMS0427]",Kd,[4],91 pM
same,Kd,[5],45 pM
same,IC50,[6],~100 pM
same,IC50,[7],~100 pM
"CGUGGAGAUGCAUUCUGUCGAAGAUUGGCUAACACG (ssRNA, 2'-F all positions) [AMS0426]",IC50,[6],~100 pM
same,IC50,[7],~100 pM
same,Kd,[8],349 pM
same,Kd,[9],214 pM
same,Kd,[10],151 pM
same,Kd,[11],86 pM
"AMSB103 (ssRNA, 2'-F all positions) RNA: CGCUAGAUGGCUAACACUAUUGUGGAGAUGCACUAGCGCGCAUAGAUAAGCCAACAAACGUACAUUCUCUGUUAGUAUUUUCUGCG",Kd,Angiopoietin-2 (Ang2) [12],29 pM
same,Kd,[13],39 pM
same,IC50,Angiopoietin-2 (Ang2) [14],< 100 pM
